Entries after “also recorded” stand apart in the source; their conditions may differ.
Assays:
[1] = tested on: RSV; experiment: Synagis plaque assay in vitro; format: cell-based; details: FIG. 8
[2] = tested on: RSV; experiment: Virus challenge: viable virus in lung homogenates on Hep-2 monolayers; format: in vivo, Mice; details: single IN dose ~2.25 mg/Kg (15% of dose) 3 hours after infection with 1.3×10^5 PFU, 100 ul per well
Description: Mice were challenged with 1.3×10^5 plaque forming units. Three hours after infection a test group was treated with a single dose of Palivizumab IN (˜2.25 mg/Kg) and a control group received saline. Three days after infection, lung tissue was collected and homogenized. The subsequent homogenates were dispensed onto Hep-2 monolayers and the cultures were monitored for evidence of viable virus. The total homogenate volume recovered from each animal was approximately 1.5 to 2 mls and the amount placed in each test well was 100 ul.

[3] = tested on: B16F10 melanoma cells; experiment: Effects of ID and IP delivery on antitumor activity of IL-12 (10 and 100 ng), tumor size; format: in vivo, C57BL Mice; details: for tumor size increase: by day 21
Description: (§1) C57BL Mice were inoculated subcutaneously (SC) with 1 million B16F10 melanoma cells (ATCC, Inc.). Treatment was initiated with IL-12 injections 7 days post-inoculation at two levels (10 and 100 ng) given as either an intraperitoneal (IP) or intradermal (ID) (tumor bearing side) dose. IL-12 doses were repeated every other day for a total of 4 treatments. As a control, the same volume of complete medium (PBS) was injected ID on the tumor bearing side. True negatives were also run in conjunction for serum and tissue samples (n=15/condition). Weights and tumor size were measured on days 7, 11, 14, 18 and 21. Blood samples were also collected at weekly intervals for IL-12 analysis. Two tumor diameters at right angles were measured with digital calipers, and the average tumor size was plotted with respect to days post inoculation with tumor cells.

[4] = tested on: B 16F10 melanoma cells; experiment: Effects of routes of IL-12 delivery (ID, SC, IP) on tumor growth, 100 ng dose; format: in vivo, C57BL/6J mice
Description: (§2) C57BL/6J mice (Charles Rivers Labs, Inc) were inoculated SC with 1×10^6 B 16F10 melanoma cells (ATCC) on the upper right flank. One week following tumor inoculation (Day 7), the mice were randomized and treated with 100 ng rmIL-12 (R&D Systems) in 50 μL PBS solution through either ID or SC injections near tumor inoculation site, or an IP injection (n=25/condition). An additional condition of ID controls was run using 50 μL PBS solution alone. ID treatment was administered with a 34G, 1 mm needle using a modified mantoux method. SC and IP doses were given with standard 25G×¾″ needle. Treatment was continued every other day through Day 13 for a total of four doses. Tumor measurements in mm^2 (length×width) were collected on Days 7, 11, 14, 18, 21, 25 and 28. Blood samples were collected on Days 0, 14, 21 and 28 for IL-12 and IFN-gamma analysis. Draining lymph node and spleen tissue samples were collected from five animals in each condition on Days 14 and 24 for FACS analysis of CD49b (NK) cells. Mortality data were collected on 10 pre-selected animals that were not used for blood sampling or FACS analysis from each condition. Mortality was determined through either natural death or euthanasia due to tumor size of greater than 400 mm^2. Statistical data were calculated using a t-Test: Two-Sample Assuming Unequal Variances. See, e.g., Brunda, M., J. Exp. Med., 178: 1223-1230 (1993) and Leonard et al., Blood, 90: 2541-2548 (1997), both of which are incorporated herein by reference.

[5] = tested on: B16F10 melanoma cells; experiment: Effects of site of ID delivery (tumor side vs contralateral side) on antitumor activity of IL-12; format: in vivo, C57BL Mice
Description: as §1, with “at” for “at two levels (10 and”, “ng” for “ng)”, “as” for “as either”, “ID dose on the tumor bearing” for “intraperitoneal (IP)”, “contralateral side” for “intradermal (ID) (tumor bearing side)”, “analysis. Draining lymph node and spleen samples were collected at 14 and 24 days for T cell, B cell and NK cell, and GP100 FACS analysis was performed.” for “analysis.”

[6] = tested on: B 16F10 melanoma cells; experiment: Effects of routes of IL-12 administration on mortality of tumor-containing mice; format: in vivo, C57BL/6J mice; details: Day 28
Description: as §2

[7] = tested on: CD49b (NK) cells; experiment: NK cells count in draining lymph node by FACS analysis; format: in vivo, C57BL/6J mice; details: ID delivery vs other conditions
Description: C57BL/6J mice (Charles Rivers Labs, Inc) were inoculated SC with 1×10^6 B 16F10 melanoma cells (ATCC) on the upper right flank. One week following tumor inoculation (Day 7), the mice were randomized and treated with 100 ng rmIL-12 (R&D Systems) in 50 μL PBS solution through either ID or SC injections near tumor inoculation site, or an IP injection (n=25/condition). An additional condition of ID controls was run using 50 μL PBS solution alone. ID treatment was administered with a 34G, 1 mm needle using a modified mantoux method. SC and IP doses were given with standard 25G×¾″ needle. Treatment was continued every other day through Day 13 for a total of four doses. […] Mortality was determined through either natural death or euthanasia due to tumor size of greater than 400 mm^2. Statistical data were calculated using a t-Test: Two-Sample Assuming Unequal Variances. […]
The right side superficial inguinal draining lymph node (DLN) and the spleen were excised individually from 5 mice per each treatment group into Petri dishes containing cold HBSS (Invitrogen Life Technologies, Carlsbad, Calif.) for the DLN. […] The washed cells were resuspended in 1 ml of cold FacsFlow buffer and kept on ice in the dark until analyzed by flow cytometry using a FACS Vantage SE. Cell analysis was designed to exclude B cells and quantify CD4+ cells, CD8+ cells, and CD49b+ (NK cells). […]

In the case of “Palivizumab: RSV Specific MAB (Palivizumab), Synagis, humanized antibody”, the “concentration of antibody capable of blocking high numbers of virus” value [1] is reported as 6 µg/mL, the “peak lung antibody concentration relative to any other delivery route” value (IN 100 μl group, 15 mg/kg) is reported as “at least 2 times” and the “persistence of IN-delivered antibody in lung” value (IN delivery) is reported as “short lived”. For the same molecule, the “Lung Tissue Collected @ 72 Hours Post Infection (assayed straight), PFU” value [2] was “no plaque forming units were observed; also recorded: No PFU Observed”.

B1: IL-12: rmIL-12 (R&D Systems), interleukin-12 cytokine given in PBS solution (protein, UniProt P43431 23-215; P43432 23-335, looked up)
Interleukin-12 subunit alpha: RVIPVSGPARCLSQSRNLLKTTDDMVKTAREKLKHYSCTAEDIDHEDITRDQTSTLKTCLPLELHKNESCLATRETSSTTRGSCLPPQKTSLMMTLCLGSIYEDLKMYQTEFQAINAALQNHNHQQIILDKGMLVAIDELMQSLNHNGETLRQKPPVGEADPYRVKMKLCILLHAFSTRVVTINRVMGYLSSA
Interleukin-12 subunit beta: MWELEKDVYVVEVDWTPDAPGETVNLTCDTPEEDDITWTSDQRHGVIGSGKTLTITVKEFLDAGQYTCHKGGETLSHSHLLLHKKENGIWSTEILKNFKNKTFLKCEAPNYSGRFTCSWLVQRNMDLKFNIKSSSSSPDSRAVTCGMASLSAEKVTLDQRDYEKYSVSCQEDVTCPTAEETLPIELALEARQQNKYENYSTSFFIRDIIKPDPPKNLQMKPLKNSQVEVSWEYPDSWSTPHSYFSLKFFVRIQRKKEKMKETEEGCNQKGAFLVEKTSTEVQCKGGNVCVQAQDRYYNSSCSKWACVPCRVRS
For B1, the average tumor size ([3]; 10 ng, ID, Day 11) was 77 mm^2, the average tumor size ([3]; 10 ng, ID, Day 14) was 120 mm^2 and the “tumor size increase from the previous measurement” value ([3]; 10 ng, ID, Day 14) was 56%. The average tumor size ([3]; 10 ng, ID, Day 18) was 112 mm^2, the “tumor size decrease from the previous measurement” value ([3]; 10 ng, ID, Day 18) was 6% and the average tumor size ([3]; 10 ng, ID, Day 21) was 250 mm^2. The “tumor size increase from the previous measurement” value ([3]; 10 ng, ID, Day 21) was 121%, the average tumor size ([3]; 10 ng, IP, Day 11) was 68 mm^2 and the average tumor size ([3]; 10 ng, IP, Day 14) was 113 mm^2. For the same molecule, the “tumor size increase from the previous measurement” value ([3]; 10 ng, IP, Day 14) was 63%, the average tumor size ([3]; 10 ng, IP, Day 18) was 206 mm^2 and the “tumor size increase from the previous measurement” value ([3]; 10 ng, IP, Day 18) was 82%. For the same molecule, the average tumor size ([3]; 10 ng, IP, Day 21) was 262 mm^2, the “tumor size increase from the previous measurement” value ([3]; 10 ng, IP, Day 21) was 27% and the “final average ID tumor size smaller than IP” value ([3]; 100 ng, Day 21) was 47%. The average tumor size ([3]; 100 ng, ID, Day 11) was 54 mm^2, the average tumor size ([3]; 100 ng, ID, Day 14) was 75 nm^2 and the “tumor size increase from the previous measurement” value ([3]; 100 ng, ID, Day 14) was 39%. It also gave an average tumor size ([3]; 100 ng, ID, Day 21) of 142 mm^2, a tumor size increase ([3]; 100 ng, ID) of 89% and an average tumor size ([3]; 100 ng, IP, Day 11) of 70 mm^2. For the same molecule, the average tumor size ([3]; 100 ng, IP, Day 14) was 126 mm^2, the “tumor size increase from the previous measurement” value ([3]; 100 ng, IP, Day 14) was 80% and the average tumor size ([3]; 100 ng, IP, Day 21) was 302 mm^2. For the same molecule, the tumor size increase ([3]; 100 ng, IP) was 139%, the “Mean (tumor measurement, length x width)” value ([4]; Day 18, ID 100 ng) was 62.29 mm^2 and the “Mean (tumor measurement, length x width)” value ([4]; Day 18, IP 100 ng) was 158.2458 mm^2. For the same molecule, the “Mean (tumor measurement, length x width)” value ([4]; Day 18, SC 100 ng) was 199.7379 mm^2, the “Mean (tumor measurement, length x width)” value ([4]; Day 28, ID 100 ng) was 127.2 mm^2 and the “Mean (tumor measurement, length x width)” value ([4]; Day 28, IP 100 ng) was 383.7 mm^2. For the same molecule, the “Mean (tumor measurement, length x width)” value ([4]; Day 28, SC 100 ng) was 352.9 mm^2, the “inhibition of tumor growth” value ([4]; ID delivery, 100 ng, only route with effect (FIG. 1)) was “significant effects on inhibiting the tumor growth” and the “effectiveness relative to other conditions” value ([5]; 100 ng ID contralateral side) was “not as effective as those dosed near the tumor, but were better than the IP condition”. The tumor size ([5]; 100 ng ID contralateral side (IDcs), Day 14) was 75 mm^2, the “overall tumor growth reduction” value ([5]; 100 ng ID near the tumor injection site) was “greatest reduction in overall tumor growth” and the tumor size ([5]; 100 ng ID tumor side (IDts), Day 14) was 75 mm^2. The tumor size increase ([5]; 100 ng IDcs, Day 14 to Day 18) was 91%, the tumor size ([5]; 100 ng IDcs, Day 18) was 43 mm^2 and the tumor size increase ([5]; 100 ng IDcs, Day 18 to Day 21) was 29%. The tumor size increase ([5]; 100 ng IDts, Day 14 to Day 18) was 68%, the tumor size ([5]; 100 ng IDts, Day 18) was 126 mm^2 and the tumor size increase ([5]; 100 ng IDts, Day 18 to Day 21) was 14%. For the same molecule, the tumor size ([5]; 100 ng IDts, Day 21) was 142 mm^2, the “final tumor size for IDts smaller than IDcs” value ([5]; 100 ng, Day 21) was 23% and the “survivability compared to delivery through other routes or control” value ([6]; ID delivery) was “greater than 200%”. For the same molecule, the surviving animals ([6]; ID delivery 100 ng) was 7 out of 10, the surviving animals ([6]; IP delivery 100 ng) was 3 out of 10 and the surviving animals ([6]; SC delivery 100 ng) was 3 out of 10. The “NK cells in DLN” value ([7]; Day 14 (one day post regimen)) was “increase in NK cells is apparent” and the “NK cells in DLN” value ([7]; Day 24) was “relative increase above the other conditions”.
